Assay results: US20240247080A1, “GLP1/GIP/NPY2 RECEPTOR TRIPLE AGONISTS” (Boehringer Ingelheim International GmbH, priority 2022, published 2024)
Starred links: 1 amine or outer side, 2 acyl side, 3 side chain; linkers in the order of their positions; H or OH if unused. Non-standard residues stand in square brackets, D forms with d. Groups on a side chain read outwards from the residue. No end group written: not given here. *: point of attachment. C20 diacid = O=C(O)CCCCCCCCCCCCCCCCCCC(=O)*; C18 diacid = O=C(O)CCCCCCCCCCCCCCCCC(=O)*; γGlu = O=C(O)[C@H](CCC(=O)[*:2])N[*:1]; εLys = N[C@@H](CCCCN[*:1])C(=O)[*:2]; AEEA = NCCOCCOCC(=O)O; Aib = CC(C)(N)C(=O)O

T1: human GIP receptor (human, UniProt P48546 22-466)
T1 sequence (looked up): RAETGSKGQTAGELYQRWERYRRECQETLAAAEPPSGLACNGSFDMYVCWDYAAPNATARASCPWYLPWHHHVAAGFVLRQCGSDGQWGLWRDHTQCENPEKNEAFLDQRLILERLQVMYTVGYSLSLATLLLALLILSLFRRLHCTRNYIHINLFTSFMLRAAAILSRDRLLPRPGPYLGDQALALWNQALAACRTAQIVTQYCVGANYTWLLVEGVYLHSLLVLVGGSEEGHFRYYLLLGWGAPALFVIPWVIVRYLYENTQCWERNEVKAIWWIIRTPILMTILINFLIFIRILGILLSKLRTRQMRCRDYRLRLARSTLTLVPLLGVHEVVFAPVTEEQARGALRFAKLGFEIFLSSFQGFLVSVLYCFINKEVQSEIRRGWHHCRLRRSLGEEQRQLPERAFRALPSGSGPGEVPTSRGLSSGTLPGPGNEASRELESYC

T2: human neuropeptide Y2 receptor (human, UniProt P49146 1-381)
T2 sequence (looked up): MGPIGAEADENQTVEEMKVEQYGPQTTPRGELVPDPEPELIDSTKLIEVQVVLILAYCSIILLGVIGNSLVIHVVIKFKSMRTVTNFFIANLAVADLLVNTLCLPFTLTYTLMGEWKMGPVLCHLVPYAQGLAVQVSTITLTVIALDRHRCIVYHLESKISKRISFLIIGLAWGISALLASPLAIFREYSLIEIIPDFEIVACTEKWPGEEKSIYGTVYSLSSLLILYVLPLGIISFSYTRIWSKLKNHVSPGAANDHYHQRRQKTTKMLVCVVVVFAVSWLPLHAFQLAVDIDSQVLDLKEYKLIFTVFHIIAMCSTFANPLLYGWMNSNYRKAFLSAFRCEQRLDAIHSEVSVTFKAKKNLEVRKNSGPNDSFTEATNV


Legend:
Assay in all cases: cell-based or functional assay
[1] = molecular target: human GLP-1 receptor (human, UniProt P43220 24-463)
[2] = molecular target: T1, human GIP receptor
[3] = molecular target: T2, human neuropeptide Y2 receptor

Binder	EC50 CreLuc hGLP1R 0.5% hP [1] [nM]	EC50 CreLuc hGLP1R 100% hP [1] [nM]	EC50 CreLuc hGIPR 0.5% hP [2] [nM]	EC50 CreLuc hGIPR 100% hP [2] [nM]	EC50 CreLuc hNPY2R 0.5% hP [3] [nM]	EC50 CreLuc hNPY2R 100% hP [3] [nM]
YXEGTFTSDYSIXLEKQAQXAFVQWLIKGGPEEGASLRHYYNWLTRQRY (Aib at 2, 13, 20; K28 side chain: C18DA-gGlu-gGlu-gGlu-gGlu-gGlu-gGlu-eLys; C-terminal NH2) [Compound 149]	0.15	4.76	0.58	0.79	18.6	40.3
Y[Aib]EGTFTSDYSI[Aib]LEKQAE[Aib]AFVEWLIK([AEEA-AEEA-γGlu-γGlu-γGlu-γGlu-C18 diacid])GGPSSGASLRHYYNWLTRQRY-NH2 [Compound 150]	0.31	8.35	0.27	1.65	16.7	62.7
Y[Aib]EGTFTSDYSI[Aib]LEKQAQ[Aib]EFVQWLIK([γGlu-γGlu-γGlu-γGlu-γGlu-γGlu-C18 diacid])GGPSEGASLRHYYNWLTRQRY-NH2 [Compound 151]	0.26	4.39	0.91	1.28	18.9	42.3
Y[Aib]EGTFTSDYSI[Aib]LEKQAQ[Aib]AFVEWLIK([εLys-γGlu-γGlu-γGlu-γGlu-γGlu-C18 diacid])GGPESGASLRHYYNWLTRQRY-NH2 [Compound 152]	0.13	4.24	0.4	0.96	12.6	39.1
YXEGTFTSDYSIXLEKQAQXEFVQWLIKGGPSEGASLRHYYNWLTRQRY (Aib at 2, 13, 20; K28 side chain: C18DA-gGlu-gGlu-gGlu-gGlu-gGlu-gGlu-eLys; C-terminal NH2) [Compound 153]	0.25	6.12	0.22	1.21	18.9	58.5
Y[Aib]EGTFTSDYSI[Aib]LEKQAQ[Aib]EFVQWLIK([εLys-γGlu-γGlu-γGlu-γGlu-γGlu-C18 diacid])GGPSEGASLRHYYNWLTRQRY-NH2 [Compound 154]	0.26	6.65	0.4	1.07	10.7	21.6
Y[Aib]EGTFTSDYSI[Aib]LEKQAQ[Aib]AFVQWLIK([εLys-Glu-Glu-Glu-Glu-Glu-C18 diacid])GGPEEGASLRHYYNWLTRQRY-NH2 [Compound 155]	0.15	7.18	0.14	1.43	17	95
Y[Aib]EGTFTSDYSI[Aib]LEKQAE[Aib]AFVQWLIK([AEEA-AEEA-γGlu-γGlu-γGlu-γGlu-C18 diacid])GGPSEGASLRHYYNWLTRQRY-NH2 [Compound 156]	0.18	6.5	0.16	0.72	13.5	26.5
Y[Aib]EGTFTSDYSI[Aib]LEKQAQ[Aib]EFVQWLIK([AEEA-AEEA-Glu-Glu-Glu-C18 diacid])GGPSEGASLRHYYNWLTRQRY-NH2 [Compound 157]	0.35	9.05	0.38	1.58	23.6	86.9
Y[Aib]EGTFTSDYSI[Aib]LEKQAQ[Aib]AFVEWLIK([AEEA-AEEA-γGlu-γGlu-γGlu-γGlu-C18 diacid])GGPSSPASLRHYYNWLTRQRY-NH2 [Compound 158]	0.09	3.25	0.11	0.84	15.8	39.9
Y[Aib]EGTFTSDYSI[Aib]LEKQAQ[Aib]EFVEWLIK([εLys-γGlu-γGlu-γGlu-γGlu-γGlu-C18 diacid])GGPSSGASLRHYYNWLTRQRY-NH2 [Compound 159]	0.19	5.17	0.35	0.91	13.8	34.6
Y[Aib]EGTFTSDYSI[Aib]LEKQAQ[Aib]EFVQWLIK([AEEA-AEEA-γGlu-γGlu-γGlu-C18 diacid])GGPSEGASLRHYYNWLTRQRY-NH2 [Compound 160]	0.3	6.31	0.33	0.91	8.23	21.9
Y[Aib]EGTFTSDYSI[Aib]LEKQAQ[Aib]AFVEWLIK([AEEA-AEEA-γGlu-γGlu-γGlu-γGlu-C18 diacid])GGPEEPASLRHYYNWLTRQRY-NH2 [Compound 161]	0.21	8.06	0.14	1.23	11.5	41.7
YXEGTFTSDYSIXLEKQAQXAFVQWLIKGGPEEGASLRHYYNWLTRQRY (Aib at 2, 13, 20; K28 side chain: C18DA-gGlu-gGlu-gGlu-gGlu-gGlu-AHX; C-terminal NH2) [Compound 162]	0.2	8.2	0.25	1.61	25.8	92.6
Y[Aib]EGTFTSDYSI[Aib]LEKQAQ[Aib]AFVEWLIK([AEEA-AEEA-γGlu-γGlu-γGlu-γGlu-C18 diacid])GGPESGASLRHYYNWLTRQRY-NH2 [Compound 163]	0.1	4.72	0.26	0.87	21.3	55.2
Y[Aib]EGTFTSDYSI[Aib]LEKQAQ[Aib]EFVQWLIKGGPSEGASLRHYYNWLTRQRY-NH2 (not fully specified (residue 28)) [Compound 164]	0.28	6.48	0.25	1.26	24	50.1
Y[Aib]EGTFTSDYSI[Aib]LEKQAQ[Aib]AFVQWLIK([AEEA-AEEA-γGlu-γGlu-Glu-γGlu-C20 diacid])GGPSEPASLRHYYNWLTRQRY-NH2 [Compound 165]	0.13	4.81	0.33	1.88	8.91	36
Y[Aib]EGTFTSDYSI[Aib]LEKQAQ[Aib]AFVEWLIK([AEEA-AEEA-γGlu-γGlu-γGlu-C18 diacid])GGPESGASLRHYYNWLTRQRY-NH2 [Compound 166]	0.07	4.24	0.08	0.64	12.5	57.9
YXEGTFTSDYSIXLEKQAQXAFVQWLIKGGPSSGASLRHYYNWLTRQRY (Aib at 2, 13, 20; K28 side chain: C18DA-gGlu-gGlu-gGlu-gGlu-gGlu-OEG-OEG; C-terminal NH2) [Compound 167]	0.04	0.82	0.14	0.49	10.5	26.5
YXEGTFTSDYSIXLEKQAQXAFVEWLIKGGPRSGASLRHYYNWLTRQRY (Aib at 2, 13, 20; K28 side chain: C20DA-gGlu-gGlu-gGlu-gGlu-gGlu-gGlu-eLys; C-terminal NH2) [Compound 168]	0.11	3.59	0.2	1.5	6.05	36.1
